Assay results from patent US9827216B2, “Nutritional support to prevent and/or mitigate bone marrow toxicity from a cancerous tumor” (Nestec S.A., priority 2008, dated 2017).

What was measured:
[1] = system: immune cells; experiment: Nutritional intervention on immune cells in tumor burdened animals with and without chemotherapy (FIG. 11); type: in vivo
Source text: FIG. 11 illustrates a graph of the effect of nutritional intervention on immune cells in tumor burdened animals with and without chemotherapy in accordance with an embodiment of the present disclosure.

[2] = system: red blood cell, white blood cell and immune cell populations; experiment: Haematological evaluation and flow cytometric analysis, test diets with chemotherapy (Example 2); type: in vivo, mice
Description: The animals were distributed into 7 different group diets. There was a control group that received the diet AIN 93 for adult rodents (maintenance). Test diets were administered in doses appropriate to the animal model: (a) Ctrl diet were supplemented with 1% (w/w) L-arginine, (b) 25% of the protein was replaced by glutamine, (c) 1% (w/w) L-citrulline, (d) 1 g/Kg body weight with active hexose correlated compound, (e) 20 mg/day of RNA nucleotides and (f) 25 mg/day of lactoferrin. […] Control animals without chemotherapeutic treatment were run in parallel for all tested diets. Body weight was assessed every two days. Blood samples were obtained at day 2, 4 and 10 after the chemo-treatment and at sacrifice (14 or 28 days). An autopsy was performed and tumor mass was assessed.

B1: lactoferrin: diet with 25 mg/day of lactoferrin (protein, UniProt P24627 20-708, looked up)
Lactotransferrin: APRKNVRWCTISQPEWFKCRRWQWRMKKLGAPSITCVRRAFALECIRAIAEKKADAVTLDGGMVFEAGRDPYKLRPVAAEIYGTKESPQTHYYAVAVVKKGSNFQLDQLQGRKSCHTGLGRSAGWIIPMGILRPYLSWTESLEPLQGAVAKFFSASCVPCIDRQAYPNLCQLCKGEGENQCACSSREPYFGYSGAFKCLQDGAGDVAFVKETTVFENLPEKADRDQYELLCLNNSRAPVDAFKECHLAQVPSHAVVARSVDGKEDLIWKLLSKAQEKFGKNKSRSFQLFGSPPGQRDLLFKDSALGFLRIPSKVDSALYLGSRYLTTLKNLRETAEEVKARYTRVVWCAVGPEEQKKCQQWSQQSGQNVTCATASTTDDCIVLVLKGEADALNLDGGYIYTAGKCGLVPVLAENRKSSKHSSLDCVLRPTEGYLAVAVVKKANEGLTWNSLKDKKSCHTAVDRTAGWNIPMGLIVNQTGSCAFDEFFSQSCAPGADPKSRLCALCAGDDQGLDKCVPNSKEKYYGYTGAFRCLAEDVGDVAFVKNDTVWENTNGESTADWAKNLNREDFRLLCLDGTRKPVTEAQSCHLAVAPNHAVVSRSDRAAHVKQVLLHQQALFGKNGKNCPDKFCLFKSETKNLLFNDNTECLAKLGGRPTYEEYLGTEYVTAIANLKKCSTSPLLEACAFLTR
[1]; chemotherapy treated group as compared to the control (FIG. 11)
  toxicity (immune cells): less toxicity
[1]; during the second phase (tumor-induced toxicity)
  immune cell population / concentration: increase in their immune cell population
[2]; following chemotherapy, supplemented diets
  Global lymphocyte population: less depressed
[2]; oxaliplatin treated animals, supplemented diet 25 mg/day
  leukocytic increase (white blood cell counts): tended to be higher
